Numbered stars: 1 amine (or outer) side, 2 acyl side, 3 side chain; on linkers, the order of the positions; unused ones are H or OH. Bridge positions count the residues as written; N and C are the ends. Side chains are listed from the residue outwards. Ends that are not written are not given here. * marks the point of attachment. C20 diacid = O=C(O)CCCCCCCCCCCCCCCCCCC(=O)*; C18 diacid = O=C(O)CCCCCCCCCCCCCCCCC(=O)*; C16 diacid = O=C(O)CCCCCCCCCCCCCCC(=O)*; γGlu = O=C(O)[C@H](CCC(=O)[*:2])N[*:1]; C14 diacid = O=C(O)CCCCCCCCCCCCC(=O)*
T1: rat amylin receptor (rat calcitonin receptor + rat RAMP 3) (rat, UniProt P32214 25-516; Q9JJ73 23-147)
T1 construct: whole, on cells; Membranes prepared from transiently transfected BHK tk'ts 13 cells; also called rAmylin-R; rat amylin 3(a) receptor
T1 sequence (looked up) 1: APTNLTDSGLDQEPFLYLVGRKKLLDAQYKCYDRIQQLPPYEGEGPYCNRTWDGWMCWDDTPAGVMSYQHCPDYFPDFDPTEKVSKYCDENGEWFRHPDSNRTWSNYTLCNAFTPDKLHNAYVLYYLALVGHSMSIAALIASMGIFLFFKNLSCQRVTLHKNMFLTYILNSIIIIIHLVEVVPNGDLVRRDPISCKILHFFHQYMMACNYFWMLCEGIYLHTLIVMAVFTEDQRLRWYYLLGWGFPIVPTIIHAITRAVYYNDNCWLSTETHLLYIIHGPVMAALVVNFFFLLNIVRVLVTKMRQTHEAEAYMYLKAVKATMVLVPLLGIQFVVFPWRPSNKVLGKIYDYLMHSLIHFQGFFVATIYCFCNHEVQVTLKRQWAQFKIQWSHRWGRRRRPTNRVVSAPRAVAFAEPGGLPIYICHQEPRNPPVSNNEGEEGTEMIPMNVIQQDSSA
T1 sequence (looked up) 2: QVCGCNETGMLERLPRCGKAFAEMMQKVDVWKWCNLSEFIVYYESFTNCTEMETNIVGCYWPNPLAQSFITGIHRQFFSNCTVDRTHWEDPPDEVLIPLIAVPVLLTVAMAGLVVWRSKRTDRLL

T2: rat calcitonin receptor (rat, UniProt P32214 25-516)
T2 construct: whole, on cells; Membranes prepared from transiently transfected BHK tk'ts 13 cells; also called rCTR; rat calcitonin (a) receptor
T2 sequence (looked up): T1 sequence (looked up) 1

T3: human calcitonin receptor (human, UniProt P30988 25-474)
T3 construct: whole, on cells; Membranes from stably transfected BHK cells; also called hCTR; hCT
T3 sequence (looked up): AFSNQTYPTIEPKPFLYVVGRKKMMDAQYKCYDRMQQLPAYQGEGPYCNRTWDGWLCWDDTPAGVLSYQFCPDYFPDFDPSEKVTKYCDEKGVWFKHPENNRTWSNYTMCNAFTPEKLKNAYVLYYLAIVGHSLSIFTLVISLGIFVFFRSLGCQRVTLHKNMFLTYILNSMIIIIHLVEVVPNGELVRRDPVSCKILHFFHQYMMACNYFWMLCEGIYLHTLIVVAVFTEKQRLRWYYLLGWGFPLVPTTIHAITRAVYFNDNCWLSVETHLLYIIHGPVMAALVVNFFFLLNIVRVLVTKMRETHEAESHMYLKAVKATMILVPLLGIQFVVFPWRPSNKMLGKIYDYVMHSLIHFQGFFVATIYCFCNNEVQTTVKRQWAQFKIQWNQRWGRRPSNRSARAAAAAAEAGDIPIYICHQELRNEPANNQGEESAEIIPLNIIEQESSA

B1: N^ε1-[(4S)-4-carboxy-4-(13-carboxytridecanoylamino)butanoyl]-[Arg17,Pro21,Pro27,His34]-h-amylin (peptide)
peptide: K([γGlu-C14 diacid])CNTATCATQRLANFLRHSSPNFGAIPSSTNVGHNTY-NH2
modifications: disulfide 2-7; N-terminus assumed
SMILES: CC[C@H](C)[C@H](NC(=O)[C@H](C)NC(=O)CNC(=O)[C@H](Cc1ccccc1)NC(=O)[C@H](CC(N)=O)NC(=O)[C@@H]1CCCN1C(=O)[C@H](CO)NC(=O)[C@H](CO)NC(=O)[C@H](Cc1c[nH]cn1)NC(=O)[C@H](CCCNC(=N)N)NC(=O)[C@H](CC(C)C)NC(=O)[C@H](Cc1ccccc1)NC(=O)[C@H](CC(N)=O)NC(=O)[C@H](C)NC(=O)[C@H](CC(C)C)NC(=O)[C@H](CCCNC(=N)N)NC(=O)[C@H](CCC(N)=O)NC(=O)[C@@H](NC(=O)[C@H](C)NC(=O)[C@@H]1CSSC[C@H](NC(=O)[C@@H](N)CCCCNC(=O)CC[C@H](NC(=O)CCCCCCCCCCCCC(=O)O)C(=O)O)C(=O)N[C@@H](CC(N)=O)C(=O)N[C@@H]([C@@H](C)O)C(=O)N[C@@H](C)C(=O)N[C@@H]([C@@H](C)O)C(=O)N1)[C@@H](C)O)C(=O)N1CCC[C@H]1C(=O)N[C@@H](CO)C(=O)N[C@@H](CO)C(=O)N[C@H](C(=O)N[C@@H](CC(N)=O)C(=O)N[C@H](C(=O)NCC(=O)N[C@@H](Cc1c[nH]cn1)C(=O)N[C@@H](CC(N)=O)C(=O)N[C@H](C(=O)N[C@@H](Cc1ccc(O)cc1)C(N)=O)[C@@H](C)O)C(C)C)[C@@H](C)O
B2: N^ε1-[(4S)-4-carboxy-4-(15-carboxypentadecanoylamino)butanoyl]-[Arg17,Pro21,Pro27,His34]-h-amylin (peptide)
peptide: K([γGlu-C16 diacid])CNTATCATQRLANFLRHSSPNFGAIPSSTNVGHNTY-NH2
modifications: disulfide 2-7; N-terminus assumed
SMILES: CC[C@H](C)[C@H](NC(=O)[C@H](C)NC(=O)CNC(=O)[C@H](Cc1ccccc1)NC(=O)[C@H](CC(N)=O)NC(=O)[C@@H]1CCCN1C(=O)[C@H](CO)NC(=O)[C@H](CO)NC(=O)[C@H](Cc1c[nH]cn1)NC(=O)[C@H](CCCNC(=N)N)NC(=O)[C@H](CC(C)C)NC(=O)[C@H](Cc1ccccc1)NC(=O)[C@H](CC(N)=O)NC(=O)[C@H](C)NC(=O)[C@H](CC(C)C)NC(=O)[C@H](CCCNC(=N)N)NC(=O)[C@H](CCC(N)=O)NC(=O)[C@@H](NC(=O)[C@H](C)NC(=O)[C@@H]1CSSC[C@H](NC(=O)[C@@H](N)CCCCNC(=O)CC[C@H](NC(=O)CCCCCCCCCCCCCCC(=O)O)C(=O)O)C(=O)N[C@@H](CC(N)=O)C(=O)N[C@@H]([C@@H](C)O)C(=O)N[C@@H](C)C(=O)N[C@@H]([C@@H](C)O)C(=O)N1)[C@@H](C)O)C(=O)N1CCC[C@H]1C(=O)N[C@@H](CO)C(=O)N[C@@H](CO)C(=O)N[C@H](C(=O)N[C@@H](CC(N)=O)C(=O)N[C@H](C(=O)NCC(=O)N[C@@H](Cc1c[nH]cn1)C(=O)N[C@@H](CC(N)=O)C(=O)N[C@H](C(=O)N[C@@H](Cc1ccc(O)cc1)C(N)=O)[C@@H](C)O)C(C)C)[C@@H](C)O
B3: N^ε1-[(4S)-4-carboxy-4-(17-carboxyheptadecanoylamino)butanoyl]-[Arg17,Pro21,Pro27,His34]-h-amylin (peptide)
peptide: K([γGlu-C18 diacid])CNTATCATQRLANFLRHSSPNFGAIPSSTNVGHNTY-NH2
modifications: disulfide 2-7; N-terminus assumed
SMILES: CC[C@H](C)[C@H](NC(=O)[C@H](C)NC(=O)CNC(=O)[C@H](Cc1ccccc1)NC(=O)[C@H](CC(N)=O)NC(=O)[C@@H]1CCCN1C(=O)[C@H](CO)NC(=O)[C@H](CO)NC(=O)[C@H](Cc1c[nH]cn1)NC(=O)[C@H](CCCNC(=N)N)NC(=O)[C@H](CC(C)C)NC(=O)[C@H](Cc1ccccc1)NC(=O)[C@H](CC(N)=O)NC(=O)[C@H](C)NC(=O)[C@H](CC(C)C)NC(=O)[C@H](CCCNC(=N)N)NC(=O)[C@H](CCC(N)=O)NC(=O)[C@@H](NC(=O)[C@H](C)NC(=O)[C@@H]1CSSC[C@H](NC(=O)[C@@H](N)CCCCNC(=O)CC[C@H](NC(=O)CCCCCCCCCCCCCCCCC(=O)O)C(=O)O)C(=O)N[C@@H](CC(N)=O)C(=O)N[C@@H]([C@@H](C)O)C(=O)N[C@@H](C)C(=O)N[C@@H]([C@@H](C)O)C(=O)N1)[C@@H](C)O)C(=O)N1CCC[C@H]1C(=O)N[C@@H](CO)C(=O)N[C@@H](CO)C(=O)N[C@H](C(=O)N[C@@H](CC(N)=O)C(=O)N[C@H](C(=O)NCC(=O)N[C@@H](Cc1c[nH]cn1)C(=O)N[C@@H](CC(N)=O)C(=O)N[C@H](C(=O)N[C@@H](Cc1ccc(O)cc1)C(N)=O)[C@@H](C)O)C(C)C)[C@@H](C)O
B4: N^ε1-[(4S)-4-carboxy-4-(19-carboxynonadecanoylamino)butanoyl]-[Ala14,Arg17,Pro21,Pro27,Pro34]-h-amylin (peptide)
peptide: K([γGlu-C20 diacid])CNTATCATQRLAAFLRHSSPNFGAIPSSTNVGPNTY-NH2
modifications: disulfide 2-7; N-terminus assumed
SMILES: CC[C@H](C)[C@H](NC(=O)[C@H](C)NC(=O)CNC(=O)[C@H](Cc1ccccc1)NC(=O)[C@H](CC(N)=O)NC(=O)[C@@H]1CCCN1C(=O)[C@H](CO)NC(=O)[C@H](CO)NC(=O)[C@H](Cc1c[nH]cn1)NC(=O)[C@H](CCCNC(=N)N)NC(=O)[C@H](CC(C)C)NC(=O)[C@H](Cc1ccccc1)NC(=O)[C@H](C)NC(=O)[C@H](C)NC(=O)[C@H](CC(C)C)NC(=O)[C@H](CCCNC(=N)N)NC(=O)[C@H](CCC(N)=O)NC(=O)[C@@H](NC(=O)[C@H](C)NC(=O)[C@@H]1CSSC[C@H](NC(=O)[C@@H](N)CCCCNC(=O)CC[C@H](NC(=O)CCCCCCCCCCCCCCCCCCC(=O)O)C(=O)O)C(=O)N[C@@H](CC(N)=O)C(=O)N[C@@H]([C@@H](C)O)C(=O)N[C@@H](C)C(=O)N[C@@H]([C@@H](C)O)C(=O)N1)[C@@H](C)O)C(=O)N1CCC[C@H]1C(=O)N[C@@H](CO)C(=O)N[C@@H](CO)C(=O)N[C@H](C(=O)N[C@@H](CC(N)=O)C(=O)N[C@H](C(=O)NCC(=O)N1CCC[C@H]1C(=O)N[C@@H](CC(N)=O)C(=O)N[C@H](C(=O)N[C@@H](Cc1ccc(O)cc1)C(N)=O)[C@@H](C)O)C(C)C)[C@@H](C)O
notes: also called compound 94

target: T1, rat amylin receptor (rat calcitonin …); assay: SPA competition vs 125I-rat amylin, membranes (Assay VI)

IC50 | Binder
2.52 nM | B1
1.24 nM | B2
1.17 nM | B3
0.397 nM | B4

target: T2, rat calcitonin receptor; assay: SPA competition vs 125I-calcitonin, membranes (Assay VIII)

IC50 | Binder
707 nM | B1
404 nM | B2
47 nM | B3
111 nM | B4

target: T3, human calcitonin receptor; assay: ratio of IC50 on human calcitonin receptor to IC50 on human amylin receptor
Description: The resulting pellet was resuspended, homogenized and centrifuged (20.000 rpm, 15 min) in a buffer containing 20 mM Na-HEPES and 0.1 mM EDTA (pH 7.4, buffer 2). The resulting pellet was resuspended in buffer 2 and protein concentration was measured (BCA protein Assay, Pierce). The homogenate was kept cold during the whole procedure. The membranes were kept at −80° C. until use. The assay was performed in a 384 well Optiplate (PerkinElmer) in a total volume of 40 ul. Membranes were mixed with SPA beads. Final concentration of membranes 35 ng/μL final and SPA beads was 0.05 mg/well. Test-compounds were dissolved in DMSO and further diluted in assay buffer (50 mM Hepes, pH 7.4, 1 mM CaCl2, 5 mM MgCl₂, 0.1% OA and 0.02% Tween20). […] The final mixture was incubated with shaking at 400 rpm for 120 min at 25° C. prior to centrifugation (1500 rpm, 10 min). Samples were analyzed on TopCounter™ (Packard). The IC₅₀ was calculated using (one site binding competition analysis) GraphPad Prism5 as a measure of receptor affinity.
Membranes were prepared in the following way; the cells were rinsed with PBS and incubated with Versene for approximately 5 min before harvesting. The cells were flushed with PBS and the cell-suspension was centrifuged for 5 min at 1000 rpm. Cells were homogenized (Ultrathurrax) in a buffer containing 20 mM Na-HEPES and 10 mM EDTA (pH 7.4) and centrifuged at 20.000 rpm for 15 min. The resulting pellet was resuspended, homogenized and centrifuged (20.000 rpm, 15 min) in a buffer containing 20 mM Na-HEPES and 0.1 mM EDTA (pH 7.4, buffer 2). The resulting pellet was resuspended in buffer 2 and protein concentration was measured (BCA protein Assay, Pierce). The homogenate was kept cold during the whole procedure. The membranes were kept at −80° C. until use. Assay was performed in a 384 well Optiplate (PerkinElmer) in a total volume of 40 ul. Membranes were mixed with SPA beads.

Ratio hCT/hAmylin binding | Binder
23.5 | B1
18.5 | B2
59.4 | B3
46.3 | B4

target: T2, rat calcitonin receptor; assay: ratio of IC50 on rat calcitonin receptor to IC50 on rat amylin receptor

Ratio rCT/rAmylin binding | Binder
280 | B1
327 | B2
40.3 | B3
280 | B4

From US20140087995A1 (published 2014)
